In publication PMC3063768:

Assays:
[1] = biological target: HIV-1 capsid-nucleocapsid (CA-NC), preassembled tubular assemblies (HIV-1); assay: co-sedimentation; preassembled CA-NC tubes (2 mg/ml or 10 µM, with TG50 oligonucleotide) incubated with TRIM5α CC-SPRY (0-20 µM) 1 hr at room temperature; pelleted at 20,000 g 15 min; SDS-PAGE, Coomassie Blue, gel densitometry of pellet
[2] = biological target: HIV-1 capsid protein (CA), wild type, preassembled tubular assemblies (HIV-1); assay: co-sedimentation; preassembled wild-type CA tubes (64 µM) incubated with TRIM5α CC-SPRY (0-20 µM) 1 hr at room temperature in 10 mM Tris pH 7.5, 330 mM NaCl, 1 mM TCEP, 5% glycerol; pelleted at 20,000 g 15 min; SDS-PAGE, Coomassie Blue, gel densitometry of pellet
[3] = biological target: CA of isolated HIV-1 A14C/E45C cores (HIV-1); assay: cross-linking; isolated HIV-1 cores with double-cysteine mutant CA, with or without oxidizer; non-reducing SDS-PAGE, immunoblotting with rabbit anti-CA serum
[4] = biological target: HIV-1 CA A14C/E45C, tubular assemblies (HIV-1); assay: cross-linking; preassembled double-cysteine mutant CA tubes oxidized with CuSO4/1,10-phenanthroline for 5 seconds, quenched with iodoacetamide and neocuproine; non-reducing SDS-PAGE, Coomassie Blue; with or without prior TRIM5α CC-SPRY (18 µM)
[5] = biological target: HIV-1 CA P207C/T216C, tubular assemblies, non-oxidized (HIV-1); assay: as above
[6] = biological target: CA of isolated HIV-1 P207C/T216C cores, without oxidizer (HIV-1); assay: cross-linking; isolated HIV-1 cores with double-cysteine mutant CA, with or without oxidizer; non-reducing SDS-PAGE, immunoblotting with rabbit anti-CA serum

## Rhesus macaque TRIM5α coiled-coil and SPRY domains (TRIM5αrh CC-SPRY, residues 134–497) (from UniProt Q0PF16 134-497) (domain or fragment)
[1]
  binding ratio (molar ratio of bound TRIM5αrh CC-SPRY to CA-NC in the pellet) at 1 µM TRIM5αrh CC-SPRY and 10 µM CA-NC: 0.034 molar ratio
  binding ratio (molar ratio of bound TRIM5αrh CC-SPRY to CA-NC in the pellet) at 18 µM TRIM5αrh CC-SPRY: 0.21 molar ratio
[2]
  binding ratio (molar ratio of bound TRIM5αrh CC-SPRY to CA in the pellet) at 18 µM TRIM5αrh CC-SPRY: 0.41 molar ratio

## CA of isolated HIV-1 A14C/E45C cores (natural protein)
[3]
  stoichiometry N: 6

## HIV-1 CA A14C/E45C, tubular assemblies (natural protein)
[4]
  stoichiometry N: 6

## HIV-1 CA P207C/T216C, tubular assemblies, non-oxidized (natural protein)
[5]
  stoichiometry N: 3

## CA of isolated HIV-1 P207C/T216C cores, without oxidizer (natural protein)
[6]
  stoichiometry N: 3
